# Measurements from patent publication US20260226503A1.
# Tests used:
# [1] = molecular target: AAV2 capsid (adeno-associated virus serotype 2) (UniProt P03135); assay: bind-and-elute chromatography, pure AAV2; bound at pH 7.0, eluted with PBS pH 2.0; ELISA
# [2] = molecular target: AAV9 capsid (adeno-associated virus serotype 9); assay: bind-and-elute chromatography, pure AAV9; bound at pH 7.0, eluted with PBS pH 2.0; ELISA
# [3] = molecular target: AAV2 capsid (adeno-associated virus serotype 2) (UniProt P03135); assay: bind-and-elute chromatography, pure AAV2; bound at pH 7.0, eluted with 0.2 M MgCl2 in citrate pH 2.2; ELISA
# [4] = molecular target: AAV9 capsid (adeno-associated virus serotype 9); assay: bind-and-elute chromatography, pure AAV9; bound at pH 7.0, eluted with 0.2 M MgCl2 in citrate pH 2.2; ELISA
# AAV2 capsid (adeno-associated virus serotype 2), sequence (P03135 whole entry, chain 1 of 3): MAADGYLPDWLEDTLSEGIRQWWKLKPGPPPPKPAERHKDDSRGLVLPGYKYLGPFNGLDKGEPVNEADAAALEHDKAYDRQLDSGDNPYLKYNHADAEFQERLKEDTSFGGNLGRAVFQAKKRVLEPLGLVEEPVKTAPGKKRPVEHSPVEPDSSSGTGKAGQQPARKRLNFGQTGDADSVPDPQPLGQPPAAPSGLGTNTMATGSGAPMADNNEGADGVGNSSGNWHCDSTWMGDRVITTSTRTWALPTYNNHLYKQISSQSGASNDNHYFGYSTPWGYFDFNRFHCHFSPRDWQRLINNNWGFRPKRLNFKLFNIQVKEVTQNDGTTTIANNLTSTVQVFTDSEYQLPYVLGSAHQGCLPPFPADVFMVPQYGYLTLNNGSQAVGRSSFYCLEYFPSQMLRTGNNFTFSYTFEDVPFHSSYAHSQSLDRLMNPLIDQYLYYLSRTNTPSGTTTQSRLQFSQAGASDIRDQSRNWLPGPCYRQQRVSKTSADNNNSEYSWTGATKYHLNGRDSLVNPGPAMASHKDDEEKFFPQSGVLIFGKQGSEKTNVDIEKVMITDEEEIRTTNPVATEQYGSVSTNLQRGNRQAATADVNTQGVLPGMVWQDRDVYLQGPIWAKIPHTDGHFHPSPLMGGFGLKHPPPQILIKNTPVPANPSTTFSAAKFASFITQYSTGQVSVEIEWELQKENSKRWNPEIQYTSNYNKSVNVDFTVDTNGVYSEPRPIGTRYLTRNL
# AAV2 capsid (adeno-associated virus serotype 2), sequence (P03135 139-735, tags left off, chain 2 of 3): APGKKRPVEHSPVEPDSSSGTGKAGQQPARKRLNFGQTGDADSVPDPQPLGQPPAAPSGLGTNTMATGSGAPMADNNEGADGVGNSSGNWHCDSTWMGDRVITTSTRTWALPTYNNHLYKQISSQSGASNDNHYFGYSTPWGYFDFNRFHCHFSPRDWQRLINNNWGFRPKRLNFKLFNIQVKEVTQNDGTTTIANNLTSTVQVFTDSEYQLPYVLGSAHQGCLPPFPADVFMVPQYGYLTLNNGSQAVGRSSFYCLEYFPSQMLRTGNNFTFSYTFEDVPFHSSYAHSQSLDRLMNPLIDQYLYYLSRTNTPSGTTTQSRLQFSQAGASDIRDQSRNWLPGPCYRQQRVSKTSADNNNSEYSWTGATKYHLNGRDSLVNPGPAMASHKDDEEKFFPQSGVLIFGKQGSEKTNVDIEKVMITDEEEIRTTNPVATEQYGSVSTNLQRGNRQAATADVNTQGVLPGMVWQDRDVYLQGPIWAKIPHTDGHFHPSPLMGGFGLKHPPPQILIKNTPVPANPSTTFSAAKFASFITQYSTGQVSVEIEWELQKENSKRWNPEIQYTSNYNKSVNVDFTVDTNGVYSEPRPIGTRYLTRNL
# AAV2 capsid (adeno-associated virus serotype 2), sequence (P03135 203-735, chain 3 of 3): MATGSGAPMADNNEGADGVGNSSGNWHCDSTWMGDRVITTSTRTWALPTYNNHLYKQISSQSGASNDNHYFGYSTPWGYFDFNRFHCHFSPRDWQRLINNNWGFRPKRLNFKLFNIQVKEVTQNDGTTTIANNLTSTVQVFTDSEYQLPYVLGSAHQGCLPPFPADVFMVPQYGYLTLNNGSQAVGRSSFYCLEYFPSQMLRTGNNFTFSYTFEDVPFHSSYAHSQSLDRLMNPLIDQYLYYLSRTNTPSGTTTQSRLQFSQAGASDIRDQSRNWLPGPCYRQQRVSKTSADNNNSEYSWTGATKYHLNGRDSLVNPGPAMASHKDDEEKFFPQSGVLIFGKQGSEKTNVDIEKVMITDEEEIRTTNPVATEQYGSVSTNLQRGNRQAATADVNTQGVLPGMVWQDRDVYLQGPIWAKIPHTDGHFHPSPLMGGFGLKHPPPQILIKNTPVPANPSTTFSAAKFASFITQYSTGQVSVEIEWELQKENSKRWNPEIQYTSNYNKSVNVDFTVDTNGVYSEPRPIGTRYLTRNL
Substance,yield (AAV titer in elution fraction vs. load) [1],yield (AAV titer in elution fraction vs. load) [2],yield (AAV titer in elution fraction vs. load) [3],yield (AAV titer in elution fraction vs. load) [4]
AVB Sepharose HP resin (VHH),45.8%,10.6%,,
POROS CaptureSelect AAVX Affinity resin (VHH),,,63.4%,25.6%
